Literature values in article PMC11260871.
Values belong to the substance of their own block, whether it stands above or below them.

Columns and labels:
[1] = molecular target: laminin alpha4 (UniProt Q16363)
[2] = molecular target: laminin alpha5 (UniProt O15230)
[3] = molecular target: laminin alpha2 (UniProt P24043)
[4] = molecular target: laminin alpha1 (UniProt P25391)
[5] = molecular target: laminin gamma1 LEb (UniProt P11047)
[6] = molecular target: laminin gamma LN domain LN (UniProt P11047)

Sequence of UniProt O15230 (O15230 36-3695): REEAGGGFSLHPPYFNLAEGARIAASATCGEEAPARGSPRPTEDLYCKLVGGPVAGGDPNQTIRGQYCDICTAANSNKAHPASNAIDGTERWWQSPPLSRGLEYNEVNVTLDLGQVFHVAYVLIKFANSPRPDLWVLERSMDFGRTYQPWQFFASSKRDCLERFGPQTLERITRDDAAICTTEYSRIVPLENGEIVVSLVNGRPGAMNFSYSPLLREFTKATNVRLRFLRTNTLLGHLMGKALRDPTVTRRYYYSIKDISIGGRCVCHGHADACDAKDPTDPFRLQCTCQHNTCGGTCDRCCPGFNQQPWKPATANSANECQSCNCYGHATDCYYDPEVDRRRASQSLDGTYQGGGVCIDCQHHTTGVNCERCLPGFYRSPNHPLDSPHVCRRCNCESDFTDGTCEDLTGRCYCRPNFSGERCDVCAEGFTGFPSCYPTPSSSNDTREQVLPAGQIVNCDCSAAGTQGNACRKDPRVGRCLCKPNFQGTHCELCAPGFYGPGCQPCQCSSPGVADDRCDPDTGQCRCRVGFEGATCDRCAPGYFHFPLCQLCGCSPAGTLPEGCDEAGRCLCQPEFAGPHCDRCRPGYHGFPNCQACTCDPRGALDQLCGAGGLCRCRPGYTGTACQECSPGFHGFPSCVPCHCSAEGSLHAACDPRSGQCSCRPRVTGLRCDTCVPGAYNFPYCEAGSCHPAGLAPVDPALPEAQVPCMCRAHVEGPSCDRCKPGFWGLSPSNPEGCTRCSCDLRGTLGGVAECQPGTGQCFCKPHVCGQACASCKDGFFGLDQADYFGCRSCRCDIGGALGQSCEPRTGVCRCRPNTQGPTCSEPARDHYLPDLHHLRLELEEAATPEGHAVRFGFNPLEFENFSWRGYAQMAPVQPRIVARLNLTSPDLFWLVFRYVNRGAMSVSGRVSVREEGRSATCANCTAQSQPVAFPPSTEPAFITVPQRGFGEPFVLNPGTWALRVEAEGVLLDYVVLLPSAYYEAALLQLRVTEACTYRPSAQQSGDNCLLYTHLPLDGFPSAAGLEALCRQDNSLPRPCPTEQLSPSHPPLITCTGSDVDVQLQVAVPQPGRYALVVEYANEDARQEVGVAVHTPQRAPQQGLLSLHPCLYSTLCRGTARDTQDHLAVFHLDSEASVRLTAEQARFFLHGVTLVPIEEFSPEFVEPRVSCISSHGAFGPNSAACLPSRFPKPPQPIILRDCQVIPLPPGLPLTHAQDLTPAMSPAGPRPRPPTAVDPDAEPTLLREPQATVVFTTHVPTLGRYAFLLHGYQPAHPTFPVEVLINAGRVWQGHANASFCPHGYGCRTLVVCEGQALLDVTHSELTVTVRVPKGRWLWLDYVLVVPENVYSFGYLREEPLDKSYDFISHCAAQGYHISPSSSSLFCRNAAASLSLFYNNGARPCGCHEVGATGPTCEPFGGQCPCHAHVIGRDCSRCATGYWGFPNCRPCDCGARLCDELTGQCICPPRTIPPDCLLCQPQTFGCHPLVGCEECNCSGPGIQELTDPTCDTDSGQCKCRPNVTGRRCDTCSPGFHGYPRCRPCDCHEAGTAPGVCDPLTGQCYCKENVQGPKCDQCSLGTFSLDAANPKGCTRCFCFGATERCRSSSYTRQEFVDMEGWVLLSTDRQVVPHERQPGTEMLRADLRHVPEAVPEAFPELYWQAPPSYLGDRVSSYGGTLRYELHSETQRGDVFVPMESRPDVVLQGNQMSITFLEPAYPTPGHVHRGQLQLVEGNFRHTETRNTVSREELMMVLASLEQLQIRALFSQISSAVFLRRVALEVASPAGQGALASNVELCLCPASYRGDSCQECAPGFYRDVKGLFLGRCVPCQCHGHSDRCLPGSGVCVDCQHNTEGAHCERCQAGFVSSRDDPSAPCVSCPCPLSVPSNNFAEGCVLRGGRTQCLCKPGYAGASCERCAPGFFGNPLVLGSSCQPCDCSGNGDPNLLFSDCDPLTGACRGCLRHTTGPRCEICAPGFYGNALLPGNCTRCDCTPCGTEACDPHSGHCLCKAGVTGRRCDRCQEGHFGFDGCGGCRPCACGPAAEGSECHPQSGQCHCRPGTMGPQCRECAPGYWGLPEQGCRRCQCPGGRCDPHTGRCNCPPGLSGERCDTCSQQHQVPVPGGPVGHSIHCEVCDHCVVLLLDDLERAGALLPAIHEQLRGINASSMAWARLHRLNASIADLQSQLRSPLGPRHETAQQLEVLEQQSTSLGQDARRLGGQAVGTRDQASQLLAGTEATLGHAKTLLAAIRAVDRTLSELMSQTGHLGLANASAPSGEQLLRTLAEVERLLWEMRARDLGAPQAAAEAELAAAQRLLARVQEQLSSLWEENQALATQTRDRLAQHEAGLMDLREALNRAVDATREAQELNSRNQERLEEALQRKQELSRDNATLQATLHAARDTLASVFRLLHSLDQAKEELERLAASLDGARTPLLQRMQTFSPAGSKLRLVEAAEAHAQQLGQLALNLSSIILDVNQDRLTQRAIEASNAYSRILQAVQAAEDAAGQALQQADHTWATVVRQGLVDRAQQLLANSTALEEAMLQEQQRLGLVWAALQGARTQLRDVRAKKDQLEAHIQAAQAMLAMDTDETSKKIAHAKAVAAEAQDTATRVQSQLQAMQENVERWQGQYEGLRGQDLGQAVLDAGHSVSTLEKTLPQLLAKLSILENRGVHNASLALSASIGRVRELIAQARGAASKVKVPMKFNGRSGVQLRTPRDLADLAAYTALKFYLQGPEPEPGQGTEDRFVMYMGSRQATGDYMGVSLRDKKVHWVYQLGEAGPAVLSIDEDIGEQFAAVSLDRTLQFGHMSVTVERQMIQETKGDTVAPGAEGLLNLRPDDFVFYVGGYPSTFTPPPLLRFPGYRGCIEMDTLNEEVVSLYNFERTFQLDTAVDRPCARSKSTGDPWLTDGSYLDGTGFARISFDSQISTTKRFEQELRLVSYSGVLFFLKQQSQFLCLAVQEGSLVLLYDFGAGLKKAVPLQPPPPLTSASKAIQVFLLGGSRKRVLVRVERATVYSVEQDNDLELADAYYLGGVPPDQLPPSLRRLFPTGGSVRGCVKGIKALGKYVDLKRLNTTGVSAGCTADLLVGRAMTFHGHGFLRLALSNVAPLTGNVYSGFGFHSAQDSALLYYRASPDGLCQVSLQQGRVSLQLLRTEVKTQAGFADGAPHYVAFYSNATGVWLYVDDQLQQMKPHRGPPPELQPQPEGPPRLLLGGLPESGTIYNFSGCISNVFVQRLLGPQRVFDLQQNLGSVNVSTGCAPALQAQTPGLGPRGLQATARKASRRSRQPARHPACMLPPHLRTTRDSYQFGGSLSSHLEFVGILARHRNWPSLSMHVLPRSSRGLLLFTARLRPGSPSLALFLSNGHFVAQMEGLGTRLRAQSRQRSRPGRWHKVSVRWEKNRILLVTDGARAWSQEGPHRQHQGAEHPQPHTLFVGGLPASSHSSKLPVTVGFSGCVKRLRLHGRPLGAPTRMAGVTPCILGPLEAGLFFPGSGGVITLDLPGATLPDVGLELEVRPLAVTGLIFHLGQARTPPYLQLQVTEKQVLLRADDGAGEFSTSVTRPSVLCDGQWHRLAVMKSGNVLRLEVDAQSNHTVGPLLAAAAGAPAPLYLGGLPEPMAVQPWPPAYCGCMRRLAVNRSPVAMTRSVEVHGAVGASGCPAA

- Kd [1]: > 1000 nM
- Kd [2]: 150 nM
- Kd [3]: 43 nM
- Kd [4]: 20 nM
Substance: alpha-dystroglycan (from UniProt Q14118)

- Kd [5]: < 1 nM
Substance: nidogen-1 G3 (from UniProt P14543)

- Kd [6]: 18000 nM
Substance: laminin beta LN domain LN (from UniProt P07942)
